The target in the assay is Human PD-1 fusion protein (human) (UniProt Q15116). As to the kind of experiment: ELISA on coated human PD-1/IgG chimera (2.5 ug/ml), HRP anti-murine antibody. A general note: In an ELISA, binding on a coated surface is turned into a signal by an enzyme label.
Sequence of Human PD-1 fusion protein (human) (Q15116 other isoform, or with tags, fused parts or gaps): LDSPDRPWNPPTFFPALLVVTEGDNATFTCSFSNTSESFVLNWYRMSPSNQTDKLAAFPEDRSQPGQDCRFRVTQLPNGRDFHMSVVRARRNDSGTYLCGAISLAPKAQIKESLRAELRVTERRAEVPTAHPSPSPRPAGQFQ

By EC50 (read off the curve) is commonly meant the concentration at which the effect is half-maximal. Lower therefore signals a more potent agent. With Murine anti-human PD-1 antibody J110, the EC50 (read off the curve) was 1 µg/mL.
